Test results taken from the supplement of paper PMC7877785.
± gives the uncertainty stated by the source.

Assay: self-splicing fitness, log relative to wild type (ln ratio); higher = more splicing; Tetrahymena group I intron in knt gene, E. coli kanamycin selection, DiMSum; sequences stand for … in CUCUCU…GGAGGGAAAAGUUAUCAGGCAUGCACCUGGUAGCUAGUCUUUAAACCAAUAGAUUGCAUCGGUUUAAAAGGCAAGACCGUCAAAUUGCGGGAAAGGGGUCAACAGCCGUUCAGUACCAAGUCUCAGGGGAAACUUUGAGAUGGCCUUGCAAAGGGUAUGGUAAUAAGCUGACGGACAUGGUCCUAACCACGCAGCCAAGUCCUAAGUCAACAGAUCUUCUGUUGAUAUGGAUGCAGUUCACAGACUAAAUGUCGGUCGGGGAAGAUGUAUUCUUCUCAUAAGAUAUAGUCGGACCUCUCCUUAAUGGGAGCUAGCGGAUGAAGUGAUGCAACACUGGAGCCGCUGGGAACUAAUUUGUAUGCGAAAGUAUAUUGAUUAGUUUUGGAGUACUCGUGGUCG
Method in brief: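 A randomised library covering all eight P1ex-region intron nucleotides was built with the intron in the knt kanamycin-resistance gene on pET-22b(+) and held in E. coli BL21(DE3). Cells were grown overnight at 37°C or 30°C on LB agar, with or without 25 μg/mL kanamycin, plus 100 μg/mL carbenicillin, 50 μM IPTG and 0.2% rhamnose, and pooled colonies were amplicon-sequenced on an Illumina HiSeq 2500. DiMSum fitness is the error-weighted combination of wild-type-normalised replicate fold changes, kanamycin versus none.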

| Sequence | self-splicing fitness (ln) (30 °C) | self-splicing fitness (ln) (37 °C) |
| --- | --- | --- |
| UGUGAGCAAUAUUACGAGUC | -2.67 ± 0.27 |  |
| UGUGAGCAAUAUUACGCACC | -1.27 ± 0.21 | -1.14 ± 0.22 |
| UGUGAGCAAUAUUACGCCCA | -0.902 ± 0.39 | -1.3 ± 0.36 |
| UGUGAGCAAUAUUACGCUAC | -3 ± 0.32 |  |
| UGUGAGCAAUAUUACGGAAC |  | -1.72 ± 0.48 |
| UGUGAGCAAUAUUACGGCAG | -2.64 ± 0.27 | -0.26 ± 0.28 |
| UGUGAGCAAUAUUACGGGAG | -2.52 ± 0.21 | -2.04 ± 0.33 |
| UGUGAGCAAUAUUACGGGCU | -0.671 ± 0.38 | -1.48 ± 0.46 |
| UGUGAGCAAUAUUACGGUUC | -2.76 ± 0.21 | -2.9 ± 0.24 |
| UGUGAGCAAUAUUACGUCAC | -3.91 ± 0.47 |  |
| UGUGAGCAAUAUUACGUGCA | -1.1 ± 0.14 | -0.55 ± 0.16 |
| UGUGAGCAAUAUUACGUGUG | -2.7 ± 0.11 | -0.66 ± 0.13 |
| UGUGAGCAAUAUUACGUGUU | -3.8 ± 0.25 | -2.59 ± 0.25 |
| UGUGAGCAAUAUUACGUUAG | -2.17 ± 0.25 | -2.84 ± 0.34 |
| UGUGAGCAAUAUUACGUUGG | -2.86 ± 0.31 | -2.85 ± 0.44 |
| UGUUAGCAAUAUUACGAACU | -0.445 ± 0.15 | 0.216 ± 0.18 |
| UGUUAGCAAUAUUACGAAUU | -1.44 ± 0.11 | -1.6 ± 0.22 |
| UGUUAGCAAUAUUACGACCG | -0.238 ± 0.14 | 0.106 ± 0.14 |
| UGUUAGCAAUAUUACGACUC | -1.01 ± 0.19 | -0.182 ± 0.28 |
| UGUUAGCAAUAUUACGAUGA | -0.408 ± 0.09 | -1.06 ± 0.092 |
| UGUUAGCAAUAUUACGAUGG | -1.71 ± 0.11 | -0.474 ± 0.1 |
| UGUUAGCAAUAUUACGCAAA | -0.989 ± 0.22 | -0.62 ± 0.32 |
| UGUUAGCAAUAUUACGCAUG | -1.38 ± 0.084 | -0.483 ± 0.089 |
| UGUUAGCAAUAUUACGCCCU | -0.0997 ± 0.17 | 0.532 ± 0.18 |
| UGUUAGCAAUAUUACGCCGU | -1.98 ± 0.44 | -0.747 ± 0.42 |

| Sequence | self-splicing fitness (ln) (30 °C) | self-splicing fitness (ln) (37 °C) |
| --- | --- | --- |
| UGUUAGCAAUAUUACGCGAG | -3.15 ± 0.25 | -2.42 ± 0.19 |
| UGUUAGCAAUAUUACGCGCU | -1.36 ± 0.13 | -0.409 ± 0.12 |
| UGUUAGCAAUAUUACGCUCU | -1.66 ± 0.16 | -0.371 ± 0.16 |
| UGUUAGCAAUAUUACGCUUU | -2.85 ± 0.2 | -1.32 ± 0.14 |
| UGUUAGCAAUAUUACGGAUA | -1.36 ± 0.13 | -1.45 ± 0.12 |
| UGUUAGCAAUAUUACGGAUU | -2.53 ± 0.16 | -0.414 ± 0.13 |
| UGUUAGCAAUAUUACGGCCG | 0.71 ± 0.11 | 0.567 ± 0.17 |
| UGUUAGCAAUAUUACGGCCU | -0.213 ± 0.27 | 0.286 ± 0.25 |
| UGUUAGCAAUAUUACGGGGU | -2.47 ± 0.26 |  |
| UGUUAGCAAUAUUACGGUGG | -1.95 ± 0.16 | -0.147 ± 0.16 |
| UGUUAGCAAUAUUACGGUGU | -2.57 ± 0.17 | -1.92 ± 0.18 |
| UGUUAGCAAUAUUACGUGAC | -2.93 ± 0.31 | -2.01 ± 0.29 |
| UGUUAGCAAUAUUACGUGAG | -1.02 ± 0.051 | -0.331 ± 0.065 |
| UGUUAGCAAUAUUACGUGAU | -1.77 ± 0.14 | -1.96 ± 0.25 |
| UUAAAGCAAUAUUACGAAAU | -3.49 ± 0.3 | -2.12 ± 0.24 |
| UUAAAGCAAUAUUACGAAGU | -3.67 ± 0.44 | -2.47 ± 0.39 |
| UUAAAGCAAUAUUACGAAUA | -1.71 ± 0.088 | -0.164 ± 0.12 |
| UUAAAGCAAUAUUACGACGC | -0.776 ± 0.077 | 0.177 ± 0.11 |
| UUAAAGCAAUAUUACGAUCA | 0.0315 ± 0.083 | 0.412 ± 0.097 |
| UUAAAGCAAUAUUACGAUGU | -1.91 ± 0.1 | -0.671 ± 0.15 |
| UUAAAGCAAUAUUACGAUUU | -0.89 ± 0.063 | 0.0458 ± 0.099 |
| UUAAAGCAAUAUUACGCCAU | -2.96 ± 0.17 | -1.14 ± 0.15 |
| UUAAAGCAAUAUUACGCCGA | -0.193 ± 0.12 | 0.491 ± 0.15 |
| UUAAAGCAAUAUUACGCCUA | 0.0988 ± 0.091 | 0.8 ± 0.14 |
| UUAAAGCAAUAUUACGCCUU | -1.96 ± 0.18 | -1.28 ± 0.19 |

| Sequence | self-splicing fitness (ln) (30 °C) | self-splicing fitness (ln) (37 °C) |
| --- | --- | --- |
| UUAAAGCAAUAUUACGCGCA | -0.137 ± 0.072 | -0.0874 ± 0.1 |
| UUAAAGCAAUAUUACGCUCA | 0.0308 ± 0.097 | 0.489 ± 0.14 |
| UUAAAGCAAUAUUACGCUGA | -0.633 ± 0.098 | -0.46 ± 0.14 |
| UUAAAGCAAUAUUACGCUGG | -0.4 ± 0.11 | -0.152 ± 0.12 |
| UUAAAGCAAUAUUACGGAAG | -1.67 ± 0.087 | -0.452 ± 0.11 |
| UUAAAGCAAUAUUACGGACU | -0.204 ± 0.096 | -0.0989 ± 0.11 |
| UUAAAGCAAUAUUACGGAGG | -1.34 ± 0.12 | -1.27 ± 0.17 |
| UUAAAGCAAUAUUACGGAUG | -0.473 ± 0.074 | -0.418 ± 0.1 |
| UUAAAGCAAUAUUACGGCAG | 0.129 ± 0.086 | 0.214 ± 0.11 |
| UUAAAGCAAUAUUACGGCCU | -0.459 ± 0.12 | 0.567 ± 0.16 |
| UUAAAGCAAUAUUACGGGUC | -3.44 ± 0.22 | -2.48 ± 0.24 |
| UUAAAGCAAUAUUACGGUAG | -0.312 ± 0.076 | 0.29 ± 0.11 |
| UUAAAGCAAUAUUACGGUGU | -2.73 ± 0.11 | -1.29 ± 0.1 |
| UUAAAGCAAUAUUACGGUUU | -2.12 ± 0.075 | -1.22 ± 0.097 |
| UUAAAGCAAUAUUACGUGAC | -1.93 ± 0.15 | -1.91 ± 0.18 |
| UUAAAGCAAUAUUACGUGAG | -0.984 ± 0.063 | -0.201 ± 0.1 |
| UUAAAGCAAUAUUACGUGCC | -0.9 ± 0.11 | -0.509 ± 0.16 |
| UUACAGCAAUAUUACGAAAC | -2.85 ± 0.33 | -2.49 ± 0.41 |
| UUACAGCAAUAUUACGAACC | -1.61 ± 0.4 |  |
| UUACAGCAAUAUUACGAAUA | -2.6 ± 0.3 | -1.03 ± 0.2 |
| UUACAGCAAUAUUACGACCG | -0.642 ± 0.091 | -0.0873 ± 0.13 |
| UUACAGCAAUAUUACGAGCC | -2.86 ± 0.44 | -1.13 ± 0.31 |
| UUACAGCAAUAUUACGAUGC | -3.18 ± 0.27 | -2.95 ± 0.36 |
| UUACAGCAAUAUUACGAUGU | -4.69 ± 0.39 | -2.86 ± 0.23 |
| UUACAGCAAUAUUACGCAGG | -1.79 ± 0.14 | -1.44 ± 0.14 |

| Sequence | self-splicing fitness (ln) (30 °C) | self-splicing fitness (ln) (37 °C) |
| --- | --- | --- |
| UUACAGCAAUAUUACGCAGU | -4.23 ± 0.31 | -2.55 ± 0.28 |
| UUACAGCAAUAUUACGCCAC |  | -2.7 ± 0.43 |
| UUACAGCAAUAUUACGCCAG | -1.74 ± 0.15 | -1.05 ± 0.21 |
| UUACAGCAAUAUUACGCCCA | -1.62 ± 0.32 | -0.254 ± 0.3 |
| UUACAGCAAUAUUACGCCGG | -0.726 ± 0.094 | -0.416 ± 0.13 |
| UUACAGCAAUAUUACGCGGG | -2.33 ± 0.14 | -0.688 ± 0.12 |
| UUACAGCAAUAUUACGCUCC | -1.45 ± 0.24 | -1.3 ± 0.24 |
| UUACAGCAAUAUUACGCUCU | -1.01 ± 0.074 | -0.47 ± 0.087 |
| UUACAGCAAUAUUACGCUGU | -3.49 ± 0.27 | -2.37 ± 0.34 |
| UUACAGCAAUAUUACGCUUU | -3.28 ± 0.25 | -2.08 ± 0.18 |
| UUACAGCAAUAUUACGGAUG | -2.18 ± 0.1 | -0.325 ± 0.1 |
| UUACAGCAAUAUUACGGCGG | -0.579 ± 0.087 | 0.426 ± 0.13 |
| UUACAGCAAUAUUACGGGUU | -3.73 ± 0.12 | -2.34 ± 0.12 |
| UUACAGCAAUAUUACGGUAA | -2.33 ± 0.2 | -1.68 ± 0.17 |
| UUACAGCAAUAUUACGGUCC | -1.95 ± 0.16 | -1.03 ± 0.16 |
| UUACAGCAAUAUUACGUAGU | -2.7 ± 0.15 | -3.5 ± 0.33 |
| UUACAGCAAUAUUACGUAUA | -1.59 ± 0.11 | -0.688 ± 0.14 |
| UUACAGCAAUAUUACGUCGU | -3.81 ± 0.16 | -2.26 ± 0.14 |
| UUACAGCAAUAUUACGUUAC | -3.56 ± 0.28 | -3.03 ± 0.27 |
| UUACAGCAAUAUUACGUUAG | -0.713 ± 0.086 | 0.208 ± 0.12 |
| UUACAGCAAUAUUACGUUGA | -1.57 ± 0.1 | -0.574 ± 0.1 |
| UUACAGCAAUAUUACGUUUC | -3.05 ± 0.17 | -2.53 ± 0.25 |
